According to US20080026996A1, “Selective Vpac2 Receptor Reptide Agonists” (ELI LILLY AND COMPANY, priority 2004, published 2008):
Substitutions are numbered along the chain they refer to. Where no end group is shown, it is not given here. The star is where a group is joined. Hexanoyl = CCCCCC(=O)*

B1: P56 (peptide)
peptide: HSDWVFTDNYTRLRKQVAAKKYLQSIKNKRYGGPSSGAPPPS
B2: P58 (peptide)
peptide: B1 peptide with W4A, V5F
B3: P6 (peptide)
peptide: B1 peptide with W4A
B4: P61 (peptide)
peptide: B1 peptide with W4A, V5L
modifications: not fully specified
B5: P62 (peptide)
peptide: B1 peptide with W4A, V5T
B6: P63 (peptide)
peptide: B1 peptide with W4A, F6I
B7: P64 (peptide)
peptide: B1 peptide with W4A, F6L
B8: P65 (peptide)
peptide: B1 peptide with W4A, F6T
B9: P66 (peptide)
peptide: B1 peptide with W4A, F6V
B10: P68 (peptide)
peptide: B1 peptide with W4A, F6Y
B11: P69 (peptide)
peptide: B1 peptide with W4A, V5W
B12: P70 (peptide)
peptide: B1 peptide with W4A, V5Y
B13: P74 (peptide)
peptide: B1 peptide with W4A, K27Q
B14: P75 (peptide)
peptide: B1 peptide with W4A, K29N
B15: P76 (peptide)
peptide: B1 peptide with W4A, R30I
B16: P120 (peptide)
peptide: Hexanoyl-HSDAVFTDNYTRLRKQVAAKKYLQSIKNKRYGGPSSGAPPPC

molecular target: T1, human VPAC2 receptor (human, UniProt P41587 24-438); experiment: cell-based or functional assay
T1 sequence (looked up): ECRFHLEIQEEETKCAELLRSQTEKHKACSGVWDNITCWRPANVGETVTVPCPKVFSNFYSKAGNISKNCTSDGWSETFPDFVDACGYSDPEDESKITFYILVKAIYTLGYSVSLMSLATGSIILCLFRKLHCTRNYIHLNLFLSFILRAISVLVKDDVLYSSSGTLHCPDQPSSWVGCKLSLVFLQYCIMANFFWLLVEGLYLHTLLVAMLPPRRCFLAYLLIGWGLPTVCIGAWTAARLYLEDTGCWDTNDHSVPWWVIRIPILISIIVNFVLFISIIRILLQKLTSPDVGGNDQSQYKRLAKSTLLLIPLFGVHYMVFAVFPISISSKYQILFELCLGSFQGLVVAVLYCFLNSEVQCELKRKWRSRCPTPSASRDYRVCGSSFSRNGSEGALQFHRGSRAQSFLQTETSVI

Compared with B1, B2 is 9.2-fold lower in “EC50 cAMP, DiscoveRx” value: 109 nM for the first, 11.8 nM for the second.

B3 and B4 are within 1.5-fold of each other in “EC50 cAMP, DiscoveRx” value: 2.56 nM for the first, 2.14 nM for the second.

First: B5
Second: B6
The “EC50 cAMP, DiscoveRx” value of the first is lower: 13.2 nM for the first, over 1000 nM for the second.

B7 and B8 cannot be ordered by “EC50 cAMP, DiscoveRx” value: over 1000 nM for the first, over 1000 nM for the second.

Going from B9 to B10, the “EC50 cAMP, DiscoveRx” value falls from over 1000 nM to 20.3 nM.

B11 and B12 are within 1.5-fold of each other in “EC50 cAMP, DiscoveRx” value: 6.39 nM for the first, 4.89 nM for the second.

B13 and B14 are within 1.5-fold of each other in “EC50 cAMP, DiscoveRx” value: 2.72 nM for the first, 3.44 nM for the second.

B15 was tested, and the “EC50 cAMP, DiscoveRx” value was 3.88 nM.

With B3 the “EC50 cAMP, Alpha Screen” value was 3.19 nM.

molecular target: T2, human VPAC1 receptor (human, UniProt P32241 31-457); experiment: cell-based or functional assay
T2 sequence (looked up): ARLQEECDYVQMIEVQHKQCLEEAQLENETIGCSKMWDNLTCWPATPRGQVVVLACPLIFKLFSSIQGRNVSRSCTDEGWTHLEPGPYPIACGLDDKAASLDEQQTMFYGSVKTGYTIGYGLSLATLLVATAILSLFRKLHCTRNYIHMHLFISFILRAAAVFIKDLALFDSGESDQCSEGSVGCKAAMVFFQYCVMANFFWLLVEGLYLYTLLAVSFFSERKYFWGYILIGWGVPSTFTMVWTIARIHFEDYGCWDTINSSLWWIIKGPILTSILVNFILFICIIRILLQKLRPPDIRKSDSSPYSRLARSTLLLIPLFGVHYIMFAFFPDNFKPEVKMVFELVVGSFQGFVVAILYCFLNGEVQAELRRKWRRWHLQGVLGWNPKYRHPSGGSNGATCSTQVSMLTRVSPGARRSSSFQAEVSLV

First: B1
Second: B2
The “EC50 cAMP, DiscoveRx” value of the first is 4.4-fold lower: 9.96 nM for the first, 44.1 nM for the second.

Compared with B3, B4 is 1.9-fold lower in “EC50 cAMP, DiscoveRx” value: 5 nM for the first, 2.58 nM for the second.

Going from B5 to B6, the “EC50 cAMP, DiscoveRx” value rises from 17 nM to over 1000 nM.

Going from B7 to B8, the “EC50 cAMP, DiscoveRx” value rises from 221 nM to over 1000 nM.

B9 and B10 cannot be ordered by “EC50 cAMP, DiscoveRx” value: under 1000 nM for the first, 41 nM for the second.

Compared with B11, B12 is 3.2-fold higher in “EC50 cAMP, DiscoveRx” value: 8.48 nM for the first, 27.4 nM for the second.

First: B13
Second: B14
The “EC50 cAMP, DiscoveRx” value of the first is 1.6-fold lower: 0.4 nM for the first, 0.65 nM for the second.

For B15, the “EC50 cAMP, DiscoveRx” value was 0.8 nM.

molecular target: T3, human PAC1 receptor (human, UniProt P41586 21-468); experiment: cell-based or functional assay
T3 sequence (looked up): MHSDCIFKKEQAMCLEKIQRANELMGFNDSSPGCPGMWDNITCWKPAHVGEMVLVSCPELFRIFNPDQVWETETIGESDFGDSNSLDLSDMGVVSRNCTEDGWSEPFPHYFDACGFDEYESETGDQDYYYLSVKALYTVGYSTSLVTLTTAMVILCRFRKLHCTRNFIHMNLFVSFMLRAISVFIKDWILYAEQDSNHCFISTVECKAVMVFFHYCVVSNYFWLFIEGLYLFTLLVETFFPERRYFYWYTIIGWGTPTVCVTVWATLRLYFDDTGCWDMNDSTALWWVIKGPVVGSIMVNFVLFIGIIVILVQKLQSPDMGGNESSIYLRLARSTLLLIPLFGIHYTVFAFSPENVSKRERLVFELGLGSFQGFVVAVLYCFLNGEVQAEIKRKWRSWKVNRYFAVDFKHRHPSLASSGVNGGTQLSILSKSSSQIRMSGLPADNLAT

Going from B1 to B2, the “EC50 cAMP, DiscoveRx” value falls from 405 nM to 35.6 nM (11-fold).

Going from B3 to B4, the “EC50 cAMP, DiscoveRx” value falls from over 40 nM to 11.6 nM.

First: B5
Second: B6
The “EC50 cAMP, DiscoveRx” value of the first is 150-fold higher: 137 nM for the first, 0.9 nM for the second.

Compared with B7, B8 is 7-fold higher in “EC50 cAMP, DiscoveRx” value: 0.1 nM for the first, 0.7 nM for the second.

Compared with B9, B10 is 68-fold higher in “EC50 cAMP, DiscoveRx” value: 1.4 nM for the first, 94.7 nM for the second.

Going from B11 to B12, the “EC50 cAMP, DiscoveRx” value falls from 104 nM to 20.7 nM (5-fold).

Going from B13 to B14, the “EC50 cAMP, DiscoveRx” value falls from 145 nM to 13.4 nM (11-fold).

With B15 the “EC50 cAMP, DiscoveRx” value was 15.9 nM.

molecular target: T4, rat VPAC1 receptor (rat, UniProt P30083 31-459); experiment: cell-based or functional assay
T4 sequence (looked up): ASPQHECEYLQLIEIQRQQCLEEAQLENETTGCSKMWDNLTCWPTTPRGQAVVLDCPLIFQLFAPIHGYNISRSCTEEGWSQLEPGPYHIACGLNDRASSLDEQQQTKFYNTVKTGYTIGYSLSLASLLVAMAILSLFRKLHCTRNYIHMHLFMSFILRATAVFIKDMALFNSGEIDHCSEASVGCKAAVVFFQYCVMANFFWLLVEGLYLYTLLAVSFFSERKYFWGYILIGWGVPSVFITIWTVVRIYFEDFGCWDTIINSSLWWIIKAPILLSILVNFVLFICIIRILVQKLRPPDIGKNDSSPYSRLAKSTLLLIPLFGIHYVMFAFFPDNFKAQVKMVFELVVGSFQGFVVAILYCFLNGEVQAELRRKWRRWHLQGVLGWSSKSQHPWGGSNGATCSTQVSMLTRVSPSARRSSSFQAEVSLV

In the case of B16, the “EC50 cAMP, DiscoveRx” value is reported as 0.42 nM.
